# Results published in PMC12420824, “Discovery of a selective alpha-kinase 1 inhibitor for the rare genetic disease ROSAH syndrome” (Nature Communications, 2025).
# Key:
# [1] = biological target: T1, human ALPK1 N-terminal regulatory domain aa. 1-446 (human, UniProt Q96QP1-1 1-446); assay: crystal structure; mALPK1-KD and ALPK1-ND mixed, complex purified by size exclusion chromatography, 10 mg/ml; hanging drop vapor diffusion, 12% PEG 3350, 0.1 M CBTP pH 8.2; settings: both partners purified
# T1 construct: The sentence names the His-TEV tag before the mouse kinase domain; it is read here as applying to both constructs; also called ALPK1-ND; human N-terminal regulatory domain; source: E. coli, purified (Ni column; His-tag cleaved with TEV protease)
# T1 sequence (Q96QP1 1-446): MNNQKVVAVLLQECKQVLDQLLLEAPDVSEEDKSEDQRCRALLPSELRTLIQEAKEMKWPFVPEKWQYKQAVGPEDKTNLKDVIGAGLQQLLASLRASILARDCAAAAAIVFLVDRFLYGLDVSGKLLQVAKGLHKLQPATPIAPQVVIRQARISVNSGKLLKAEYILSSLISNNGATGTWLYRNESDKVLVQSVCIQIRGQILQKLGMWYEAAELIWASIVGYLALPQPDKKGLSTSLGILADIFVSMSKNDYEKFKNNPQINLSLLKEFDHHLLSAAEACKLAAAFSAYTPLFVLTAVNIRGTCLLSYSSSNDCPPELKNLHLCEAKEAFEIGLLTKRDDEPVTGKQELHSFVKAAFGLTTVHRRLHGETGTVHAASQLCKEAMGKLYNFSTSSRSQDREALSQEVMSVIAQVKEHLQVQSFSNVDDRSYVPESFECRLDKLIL
# [2] = biological target: the molecule itself; assay: AlphaScreen or HTRF; TR-FRET after kinase reaction (260 nM HA-His-TIFA, 2 nM ALPK1, 6.25 uM ATP, 20 nM ADP-D-heptose, 1.5 h, 27 °C); anti-HA-Eu cryptate and anti-HA-d2 bound to the same TIFA oligomer, 26 °C for 1 h
binding result [1],Binder,binding result [2]
binds,"Mouse ALPK1 kinase domain aa. 949-1231 (domain or fragment, Used for crystallography in complex with the human N-terminal domain (a complex of two species' forms); also called mALPK1-KD; mouse kinase domain; source: E. coli, purified (Ni column; His-tag cleaved with TEV protease)) not shown",–
–,"recombinant HA-His-tagged TIFA, phosphorylated by ALPK1 (natural protein, human, UniProt Q96CG3 1-184, looked up, phosphorylated by recombinant ALPK1 in the kinase reaction; residues not stated for this experiment, TIFA, human; source: E. coli, purified (Ni column, desalted); phosphorylated in vitro by recombinant ALPK1; not shown: HA, N-terminal, kept) MTSFEDADTEETVTCLQMTVYHPGQLQCGIFQSISFNREKLPSSEVVKFGRNSNICHYTFQDKQVSRVQFSLQLFKKFNSSVLSFEIKNMSKKTNLIVDSRELGYLNKMDLPYRCMVRFGEYQFLMEKEDGESLEFFETQFILSPRSLLQENNWPPHRPIPEYGTYSLCSSQSSSPTEMDENES",binds
